According to the supplement of paper PMC10567573:

B1: CLINT1 (parent)
chain: VVTSAREHIYDLRSLENYHFVDEH
B2: PPEF2 (parent)
chain: AFKAAALIQRWYRRYVARLEMRRR

Variants of: B1
Experiment: protein stability index of a GFP-peptide fusion (GPS, HEK-293T) (PSI 1-6); higher = more stable
Conditions: c terminus: a fixed tail appended
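Further: lentivirally expressed fusions sorted by FACS into six bins by GFP to DsRed ratio, PSI derived from sequencing read proportions per bin multiplied by bin number.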

Protein stability index, by site and new letter:
V1: C 2.54 | G 3.67 | D 4.06 | A 3.89 | F 1.79 | E 3.96

Variants of: B2
Experiment: as above
Conditions: c terminus: a fixed tail appended

Protein stability index, by site and new letter:
R22: S 2.68 | I 1.89 | T 3.82 | V 1.66 | Q 2.74 | D 2.24 | N 3.83 | W 2.52 | P 1.52 | C 2.01 | Y 2.42 | L 3.12 | M 1.75 | F 2.32
M21: T 3.06 | E 4.73 | R 2.36 | S 2.11 | Q 4.15 | C 3.34 | Y 3.42 | D 2.98 | K 2.69 | V 3.7 | N 3.3 | H 3.83 | P 2.18 | I 3.54 | L 3.39 | F 3.32 | A 2.44
R14: Y 1.79 | P 1.59 | N 2.83 | M 2.2 | Q 2.74 | V 1.07 | T 2.49
R18: M 1.45 | K 2.54 | F 3.27 | Y 3.1 | D 1.66 | A 2.12 | P 2.09 | G 1.95 | W 2.77 | N 2.71 | C 2.25 | E 1.96 | T 2.41 | I 2.06
R23: I 2.13 | M 1.94 | K 3.58 | Y 1.58 | A 2.81 | H 2.26 | P 2.36 | E 2.44 | S 1.65 | L 2.48 | G 2.61 | C 3.14 | T 2.25 | W 1.98
V16: Y 2.96 | A 3.94 | C 3.05 | F 3.25 | M 4.45 | T 3.53 | P 1.92 | L 4 | K 4.73 | W 2.32 | I 3.94 | S 4.23 | N 3.02 | E 2.13 | H 3.66 | R 5.4
E20: I 2.63 | G 3.31 | W 4.21 | F 3.06 | H 3.46 | Y 3.25 | P 3.41 | L 2.69 | S 3.65 | Q 4.2 | V 2.32 | M 2.39 | T 2.65 | D 3.02 | N 4.16
R24: E 3 | C 1.97 | T 2.48 | K 2.75 | A 3.72 | M 2.45 | N 3.62 | Y 2.87 | V 2.34 | F 1.81 | P 2.39 | H 3.78 | L 2.9 | G 3.09 | S 2.63 | Q 3.32 | W 1.99
A17: H 2.63 | D 2.33 | G 3.96 | L 3.75 | P 2.09 | V 3.84 | C 2.53 | K 3.57 | T 3.34 | W 2.66 | I 2.96 | E 3.13 | R 3.67 | S 3.2 | Y 2.76 | N 3.84 | Q 3.62 | F 2.6
L19: W 2.13 | F 2.45 | V 3.42 | C 2.48 | P 3.63 | I 3.64 | H 3.33 | Q 3.87 | S 4.1 | Y 2.03 | K 4.7 | N 3.12 | T 4.63
Y15: V 4.4 | P 1.89 | G 1.93 | C 4.6 | R 4.11 | E 3.89 | W 3.61 | A 4.61 | H 4.56 | Q 4.44 | N 5.1 | M 5.14 | F 3.39 | L 3.82 | D 1.87 | T 4.46
